Measured values as given in paper PMC10441885.

Biological target: recombinant PsCAT1 fusion protein (His6-SUMO-PsCAT1 without the signal peptide, from pET15b-SUMO-PsCAT1) (Puccinia striiformis f. sp. tritici)
Assay: SEC

Substance “recombinant PsCAT1 fusion protein (His6-SUMO-PsCAT1 without the signal peptide, from pET15b-SUMO-PsCAT1) (enzyme)” has a stoichiometry N of 23.
